What all share (settings): remark: other sources report otherwise
The target in assay [1] is recombinant soluble homotrimeric HA of A/Vietnam/1203/04 (H5N1) (Influenza A virus A/VietNam/1203/2004(H5N1)). The experiment in a line: trimeric HA microarray, transfection supernatant set 4.
The target in assay [2] is recombinant soluble homotrimeric HA of A/duck/Yangzhou/02/05 (H8N4) (Influenza A virus A/duck/Yangzhou/02/2005(H8N4)). The description is as above.
The target of assay [3] is recombinant soluble homotrimeric HA of A/swine/Ontario/01911-2/99 (H4N6) (Influenza A virus A/Swine/Ontario/01911-2/99 (H4N6)). Described as above.
In assay [4] the target is recombinant soluble homotrimeric HA of A/Solomon Islands/3/06 (H1N1) (Influenza A virus A/Solomon Islands/3/2006(H1N1)). The description is as above.
The target of assay [5] is recombinant soluble homotrimeric HA of A/Japan/305/57 (H2N2) (Influenza A virus A/Japan/305/1957(H2N2)). The assay is described as above.
Assay [6] addresses recombinant soluble homotrimeric HA of A/chicken/Vietnam/NCVD-016/08 (H5N1) (Influenza A virus A/chicken/Vietnam/NCVD-016/2008(H5N1)). The assay is described as above.
The target of assay [7] is recombinant soluble homotrimeric HA of A/South Carolina/1/18 (H1N1) (Influenza A virus A/South Carolina/1/18 (H1N1)). The description is as above.
The target of assay [8] is recombinant soluble homotrimeric HA of A/Anhui/1/05 (H5N1) (Influenza A virus A/Anhui/1/2005(H5N1)). The description is as above.
For assay [9], the target named is T1, recombinant soluble homotrimeric HA of A/northern shoveler/California/HKWF115/07 (H6) (Influenza A virus A/northern shoveler/California/HKWF115/2007(H6N1)). The description is as above.
The target in assay [10] is T2, recombinant soluble homotrimeric HA of A/Hong Kong/2108/03 (H9N2) (Influenza A virus A/HK/2108/2003(H9N2)). The assay is described as above.
Assay [11] has as its target recombinant soluble homotrimeric HA of A/California/4/09 (H1N1) (Influenza A virus A/California/04/2009(H1N1)). Described as above.
The target in assay [12] is T3, recombinant soluble homotrimeric HA of A/Hong Kong/1073/99 (H9N2) (Influenza A virus A/Hong Kong/1073/99 (H9N2)). The description is as above.
Assay [13] concerns the target recombinant soluble homotrimeric HA of A/Indonesia/5/05 (H5N1) (Influenza A virus A/Indonesia/5/2005(H5N1)). Described as above.
Assay [14] deals with recombinant soluble homotrimeric HA of A/Egypt/3300-NAMRU3/08 (H5N1) (Influenza A virus A/Egypt/3300-NAMRU3/2008(H5N1)). Described as above.
In assay [15] the target is T1, recombinant soluble homotrimeric HA of …. The assay can be described thus: trimeric HA microarray, transfection supernatant set 3.
The target in assay [16] is T3, recombinant soluble homotrimeric HA of …. The assay is described as above.
For assay [17], the target named is T1, recombinant soluble homotrimeric HA of …. The assay can be described thus: trimeric HA microarray, transfection supernatant set 2.
The target of assay [18] is T2, recombinant soluble homotrimeric HA of …. The assay is described as above.
For assay [19], the target named is T3, recombinant soluble homotrimeric HA of …. Described as above.
Assay [20] concerns the target recombinant soluble homotrimeric HA of A/Wisconsin/67/05 (H3N2) (Influenza A virus A/Wisconsin/67/2005(H3N2)). The experiment in a line: trimeric HA microarray, transfection supernatant set 4.

B1: TCN-534 (5249_B02) (antibody, V domains shown)
VH: QVQLVQSGAEVKKPGSSVKVSCRESGGTFNGYTITWVRQAPGQGLEWMGGIIPMMGTVNYAQKLQGRVTITTDYFTKTAYMDLNNLRSEDTAMYYCVKIRYTGQQLLWGQGTLVTVSS
VL: DIQMTQSPSTLSASIGDRVTITCRASQSIASWLAWYQQKPGKAPKLLIYEAVNLESGVPSRFSGSGSGTDFTLTISSLQPDDFATYFCQHYGTISQTFGGGTKVEIK
For B1, the Trimeric HA Binding: RLU in assay [1] worked out at 23700 RLU; in assay [2], 79 RLU; in [3], 264 RLU; in assay [4] it was 60 RLU; in assay [5], 14700 RLU; in assay [6] it was 11400 RLU. The Trimeric HA Binding: RLU in assay [7] is 11800 RLU; in [8], 20 RLU; in assay [9] it was 21300 RLU; in assay [10] it was 27 RLU; in assay [11] it was 27000 RLU; in assay [12], 731 RLU. The Trimeric HA Binding: RLU was determined as 948 RLU in [13] and 8310 RLU in [14].

B2: TCN-523 (5248_A17) (antibody, V domains shown)
VH: QVQLVQSGAEVKKPGSSVKVSCKASGGSFSNYAFSWVRQAPGQGLEWMGGTIPLLGTTNYAQKFQGRVTISADQFTSTAYMELGSLRSEDTAVYYCTRRKMTTAFDSWGQGTLVTVSS
VL: QPVLTQPPSASASLGASVTLTCTLSSAYSNYKVDWYQQRPGKGPRFVMRVGTGGIVGSKGDGIPDRFSVLGSGLNRYLTIKNIQEEDESDYHCGADHGSGSNFVSPYVFGGGTKLTVL
In the case of B2, the Trimeric HA Binding: RLU is 29400 RLU in assay [15]; 24200 RLU in assay [16]; 30900 RLU in assay [1]; 371 RLU in assay [4]; 3840 RLU in assay [5]; 24000 RLU in [6]. Also, the Trimeric HA Binding: RLU came to 23000 RLU in assay [7]; 48 RLU in assay [8]; 25100 RLU in assay [9]; 38 RLU in [10]; 28800 RLU in assay [11]; 24600 RLU in [12]. Moreover, the Trimeric HA Binding: RLU in assay [13] is 24500 RLU; in assay [14] it was 33400 RLU; in assay [17], 21200 RLU; in [18], 18 RLU; in assay [19], 31300 RLU.

B3: TCN-536 (5095_N01) (antibody, V domains shown)
VH: QVQLQQWGAGLLKPSETLSLTCAVYGGSFSVSGYYWSWIRQPPGRGLEWIGEISHGGSTNYNPSLKSRVTISVDTTKNQFSLRLSSVTAADTAVYYCARGTDPDTEVYCRVGNCAAFDYWGQGSLVTVSS
VL: EIILAQSPGTLSLSPGERATLSCRASQFVSTRSLAWYQQRPGQAPRLLIYGASSRATGIPDRFSGSGSGTDFTLTISRLEPEDFAVYYCQHYGYSPRYAFGQGSKVEIK
For B3, the Trimeric HA Binding: RLU in assay [1] worked out at 182 RLU; in assay [2], 48 RLU; in assay [3], 168 RLU; in assay [5], 260 RLU; in assay [6] it was 19 RLU; in assay [7], 39 RLU. Moreover, the Trimeric HA Binding: RLU in assay [8] came out at 18 RLU; in assay [20], 20600 RLU; in [9] it was 95 RLU; in assay [11] it was 49 RLU; in [14], 97 RLU.

The record behind these values is patent publication US20150086555A1.
